Source: the supplement of paper PMC12764529
± gives the half width of the 95% confidence interval.

What was measured:
[1] = folding stability dG unfold from trypsin proteolysis; higher = more stable
Procedure, shortened: (§1)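 Mini-proteins designed to be under 80 residues and free of cysteine were carried in a PA-tagged cDNA display construct and digested with trypsin and with chymotrypsin. Each protease was applied at 11 threefold-diluted concentrations, alongside a no-protease condition, before sequencing. K50 came from Bayesian fitting of the sequencing counts, and unfolding free energy was obtained by comparing it with a sequence-predicted unfolded-state K50 and a shared folded-state K50, for each protease separately or for both together. Designs were retained only if their AlphaFold2 dimer inter-PAE exceeded 15.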

[2] = folding stability dG unfold (combined trypsin and chymotrypsin); higher = more stable
Procedure, shortened: as §1

[3] = folding stability dG unfold from chymotrypsin proteolysis; higher = more stable
Procedure, shortened: as §1

SAGGMIEIIPNPPIIIVRDASTNEISVYNIDAPPGSITRVELTSDGSILIYNPATGKVLVLPKSDIKSAGGS [r16_410_TrMRF]
folding stability dG unfold [1]: 1.33 ± 0.043 kcal/mol
folding stability dG unfold [2]: 1.62 ± 0.077 kcal/mol
folding stability dG unfold [3]: 1.74 ± 0.071 kcal/mol

SAGGMIEVTIPLEEYFDENGNPTEEAKKKIEEAKKKAEELKKKGEPAEVKVTVVEPEPYVGPDNPELVSAGG [r13_731_JUSTAS]
folding stability dG unfold [1]: 0.278 ± 0.29 kcal/mol
folding stability dG unfold [2]: 0.652 ± 0.28 kcal/mol
folding stability dG unfold [3]: 0.569 ± 0.059 kcal/mol

SAGGMIIIKFKTKEQAKKAIEAAKKGKEIEITLKDGKKIKAKVVKVEEKPNYVYLVIKTEDGKEIKFSAGGS [r16_254_TrROS_Hall]
folding stability dG unfold [1]: 2.16 ± 0.086 kcal/mol
folding stability dG unfold [2]: 2.31 ± 0.12 kcal/mol
folding stability dG unfold [3]: 2.42 ± 0.038 kcal/mol

SAGGMIKIEKEEDGTLRITIVVPEKEEEAEELAEKLKEKLKELGVEEVKIEVVEKDGKVVVEIEVKKSAGGS [r8_113_TrROS_Hall]
folding stability dG unfold [1]: 2.29 ± 0.1 kcal/mol
folding stability dG unfold [2]: 2.53 ± 0.13 kcal/mol
folding stability dG unfold [3]: 2.77 ± 0.16 kcal/mol

SAGGMIKPGEKVKVRAVLRVGEEEEEIELELPLPENATVEDIAQAILDLIPEEPRKDAEVDIEVEPVSAGGS [r16_321_TrMRF]
folding stability dG unfold [1]: -0.468 ± 0.3 kcal/mol
folding stability dG unfold [2]: 0.93 ± 0.14 kcal/mol
folding stability dG unfold [3]: 1.21 ± 0.094 kcal/mol

SAGGMIKSEKLIKSPENETIKVETTIILDENGNPKSVKKKITVYKNGKPVKEMEISSIGNEIEIKKPSAGGS [r16_35_JUSTAS]
folding stability dG unfold [1]: -0.308 ± 0.65 kcal/mol
folding stability dG unfold [2]: 1.14 ± 0.21 kcal/mol
folding stability dG unfold [3]: 1.48 ± 0.15 kcal/mol

SAGGMIPPEELAARAEAVREAAPASGEVVRTTVVLPSPGLVTRVDLVYEPGAGRITVESVSEVPPELLSAGG [r13_37_JUSTAS]
folding stability dG unfold [1]: 0.496 ± 0.027 kcal/mol
folding stability dG unfold [2]: 0.461 ± 0.046 kcal/mol
folding stability dG unfold [3]: 0.414 ± 0.032 kcal/mol

SAGGMIPPEKLEEIAKKIAEETEPLGKVVKHLFVDPLEDEVVIIELTVYPGPKKIEIKEIKVYPPEELSAGG [r13_37_TrMRF]
folding stability dG unfold [1]: 0.0241 ± 0.084 kcal/mol
folding stability dG unfold [2]: 0.223 ± 0.16 kcal/mol
folding stability dG unfold [3]: 0.251 ± 0.034 kcal/mol

SAGGMIPVSPEQYKAVEKLLKEGKDGSTVLVKTEDGRYIEIDPAGTARFFGDKPKEFPLEKIKKIIPSAGGS [r16_664_TrMRF]
folding stability dG unfold [1]: -0.209 ± 0.13 kcal/mol
folding stability dG unfold [2]: 0.235 ± 0.12 kcal/mol
folding stability dG unfold [3]: 0.469 ± 0.14 kcal/mol

SAGGMITEEEILELEKRIREAAEAGDPETVEEELERAKEALEEYKKKGNKELLKKVEEIVKRAEELIASAGG [r13_137_JUSTAS]
folding stability dG unfold [1]: 3.8 ± 0.2 kcal/mol
folding stability dG unfold [2]: 3.35 ± 0.26 kcal/mol
folding stability dG unfold [3]: 2.7 ± 0.14 kcal/mol

SAGGMKEIEIDIPLENGEPAKIRIILLNLPDKPRAFIDIESKILPKEEIAKIITKLLPEEIKEVVIDESAGG [r13_404_TrMRF]
folding stability dG unfold [1]: 1.03 ± 0.092 kcal/mol
folding stability dG unfold [2]: 0.694 ± 0.28 kcal/mol
folding stability dG unfold [3]: 0.383 ± 0.5 kcal/mol

SAGGMKFKIVKIEVKEDKVTIEIEAETEEELEEAKKLAEELAKKLGLSKEKIEVKIELRPPPEEEEEESAGG [r13_430_TrROS_Hall]
folding stability dG unfold [1]: 2.43 ± 0.23 kcal/mol
folding stability dG unfold [2]: 2.55 ± 0.52 kcal/mol
folding stability dG unfold [3]: 2.19 ± 0.15 kcal/mol

SAGGMKIEGMTPEEVEALAKALAEAGYEVVSVTVTYDPETDTVTVTVVVRDKKTGEIKKVVTVTLPPSAGGS [r16_750_TrROS_Hall]
folding stability dG unfold [1]: 3.33 ± 0.1 kcal/mol
folding stability dG unfold [2]: 2.99 ± 0.072 kcal/mol
folding stability dG unfold [3]: 2.69 ± 0.069 kcal/mol

SAGGMKIEIEIEMTPEEVRKAIEELAKALGLKIVKVEVEVERKEDGTLRVRVTIEIEPLPEEELEPESAGGS [r8_374_TrROS_Hall]
folding stability dG unfold [1]: 3.63 ± 0.16 kcal/mol
folding stability dG unfold [2]: 4 ± 0.25 kcal/mol
folding stability dG unfold [3]: 4.32 ± 0.18 kcal/mol

SAGGMKIEIKIIDEETGEEITITVTMTPEEIEKLAKELEEKYPGLEIVSVEIEEKDGEIIITIKIKKKSAGG [r13_196_TrROS_Hall]
folding stability dG unfold [1]: 3.75 ± 0.25 kcal/mol
folding stability dG unfold [2]: 3.29 ± 0.21 kcal/mol
folding stability dG unfold [3]: 2.71 ± 0.071 kcal/mol

SAGGMKIEIVEVTPTRIRIRLENGEVLTLEEIRKLLEEEGLPEPMTVDQIAELLRKRGLKITEIEIVPSAGG [r13_610_TrROS_Hall]
folding stability dG unfold [1]: 2.97 ± 0.052 kcal/mol
folding stability dG unfold [2]: 3.18 ± 0.083 kcal/mol
folding stability dG unfold [3]: 3.274 ± 0.025 kcal/mol

SAGGMKIIPLEEAEKFIEANPDKELVIGVRPGESLYLFVVKRDPDKPFNIEVLEVIEFDPDGNGRHLPSAGG [r13_481_TrMRF]
folding stability dG unfold [1]: 1.14 ± 0.11 kcal/mol
folding stability dG unfold [2]: 1.3 ± 0.16 kcal/mol
folding stability dG unfold [3]: 1.6 ± 0.1 kcal/mol

SAGGMKIKAEDIVSVEVTYNEETNELTVKVTVRINGKEVTLTFPEGMSEEELKRLLEELIKKGELEIESAGG [r13_225_TrROS_Hall]
folding stability dG unfold [1]: 2.19 ± 0.12 kcal/mol
folding stability dG unfold [2]: 2.78 ± 0.11 kcal/mol
folding stability dG unfold [3]: 2.96 ± 0.1 kcal/mol

SAGGMKIKDFEPVRVDENGMYVIDLKYEDPDNGNEYQVEFMIPNPPGNMHPITFTMKSPEDALDEILKSAGG [r13_26_TrROS]
folding stability dG unfold [1]: -0.845 ± 0.27 kcal/mol
folding stability dG unfold [2]: -0.445 ± 0.13 kcal/mol
folding stability dG unfold [3]: -0.325 ± 0.28 kcal/mol

SAGGMKIKIKIKPGQVILIKIRNKETGEEKTILVEVKEDQEITIELPEGYEIVDIKIVPLEDLPEEELSAGG [r13_119_TrROS_Hall]
folding stability dG unfold [1]: 3.94 ± 0.3 kcal/mol
folding stability dG unfold [2]: 4.05 ± 0.23 kcal/mol
folding stability dG unfold [3]: 3.96 ± 0.17 kcal/mol

SAGGMKIKITEVTVTRYYYDPKTGKLKKVEKVKVLVIEVELEPGQTAEEIAAALKKLFPDLKIVVVDSAGGS [r8_30_TrROS_Hall]
folding stability dG unfold [1]: 4.14 ± 0.092 kcal/mol
folding stability dG unfold [2]: 5.17 ± 0.18 kcal/mol
folding stability dG unfold [3]: 5.33 ± 0.11 kcal/mol

SAGGMKIKKITVEKNPETGELVVTVEVEINGKKYKFTFYKDGTVKVEVEVNGKKVTITLPVEELKKLSAGGS [r8_238_TrROS_Hall]
folding stability dG unfold [1]: 2.13 ± 0.058 kcal/mol
folding stability dG unfold [2]: 3.35 ± 0.13 kcal/mol
folding stability dG unfold [3]: 3.8 ± 0.063 kcal/mol

SAGGMKITEEAIKNFPPGRWIQFRIPDDGYMVTIRVHDPGEIKINYRKFPPGNGEPREEQEHKIPLDSAGGS [r16_163_TrROS]
folding stability dG unfold [1]: 0.845 ± 0.24 kcal/mol
folding stability dG unfold [2]: 0.917 ± 0.27 kcal/mol
folding stability dG unfold [3]: 0.825 ± 0.28 kcal/mol

SAGGMKITIKEDEETGEKVIEIEDEETGERVRVVFNPDGEEIEIEVPSPEVLEALKELGIEKVEVEEVSAGG [r13_511_TrROS_Hall]
folding stability dG unfold [1]: 0.732 ± 0.13 kcal/mol
folding stability dG unfold [2]: 0.976 ± 0.19 kcal/mol
folding stability dG unfold [3]: 1.07 ± 0.063 kcal/mol

SAGGMKIVSESTDPSVPTSYVTIEITDPKTGKKTTIKLPQDPAAGTGSPEALAKEVREKLKLPEGVELSAGG [r13_362_JUSTAS]
folding stability dG unfold [1]: 0.221 ± 0.083 kcal/mol
folding stability dG unfold [2]: 0.814 ± 0.073 kcal/mol
folding stability dG unfold [3]: 1.01 ± 0.053 kcal/mol

SAGGMKIVSVEVVKDEETGVYVIKLTVEDPETNETYTLEVVIKNEDGELKTITVKAKSKEDALKELLKSAGG [r13_26_TrROS_Hall]
folding stability dG unfold [1]: 1.85 ± 0.067 kcal/mol
folding stability dG unfold [2]: 3.1 ± 0.23 kcal/mol
folding stability dG unfold [3]: 3.6 ± 0.14 kcal/mol

SAGGMKKIKIVVKVPPNVTAEELAKALEDELKKKGYEVKVTVKVVKKPDGSLYVVIEVEIRPKNEKPSAGGS [r16_128_TrROS_Hall]
folding stability dG unfold [1]: 3.04 ± 0.13 kcal/mol
folding stability dG unfold [2]: 3.52 ± 0.099 kcal/mol
folding stability dG unfold [3]: 3.67 ± 0.075 kcal/mol

SAGGMKKKIVEIEIVEVKYDEETNEVTIKIKIKNENGEEIEIEVTMSKEELEKMTPEELKKLVKELLKSAGG [r13_512_TrROS_Hall]
folding stability dG unfold [1]: 2.16 ± 0.2 kcal/mol
folding stability dG unfold [2]: 2.12 ± 0.3 kcal/mol
folding stability dG unfold [3]: 2.18 ± 0.24 kcal/mol

SAGGMKKKLLILVDSNNPNIPLEKIKEFFKKKGFDEVETLSLENIPPEKAIELAKKEKKPLLIIPTSSAGGS [r16_94_TrMRF]
folding stability dG unfold [1]: 1.376 ± 0.012 kcal/mol
folding stability dG unfold [2]: 1.97 ± 0.063 kcal/mol
folding stability dG unfold [3]: 2.21 ± 0.04 kcal/mol

SAGGMKKPIKAKIKIVKFEDGYLILIELPDGKIIAFKSPEELKAALEKFPEIEITEIEIIPPEEFLKKSAGG [r13_730_TrMRF]
folding stability dG unfold [1]: 1.63 ± 0.067 kcal/mol
folding stability dG unfold [2]: 3.07 ± 0.22 kcal/mol
folding stability dG unfold [3]: 3.47 ± 0.19 kcal/mol

SAGGMKKYLLTLNVTLERPDSEESITLTKEVDSLEEAEKLKEEIEKKLKEEYPGRISFDVTIEEIEESAGGS [r16_475_JUSTAS]
folding stability dG unfold [1]: 3.72 ± 0.1 kcal/mol
folding stability dG unfold [2]: 4.13 ± 0.12 kcal/mol
folding stability dG unfold [3]: 4.15 ± 0.076 kcal/mol

SAGGMKLTPEAKKLAEELKKEGKKVKIEKKDGYYVLTVDGKVYKSKEDMEKAAKDPNVKKVIVIKLPSAGGS [r16_275_TrROS_Hall]
folding stability dG unfold [1]: 0.519 ± 0.13 kcal/mol
folding stability dG unfold [2]: 1.46 ± 0.18 kcal/mol
folding stability dG unfold [3]: 1.95 ± 0.18 kcal/mol

SAGGMKPKEVIEIEITLPDGRKIRIRLVKKDGKLYLFIEVPEENEEARELAEELAKKLPGVEVEVFEPSAGG [r13_34_TrROS_Hall]
folding stability dG unfold [1]: 2.41 ± 0.1 kcal/mol
folding stability dG unfold [2]: 3.03 ± 0.14 kcal/mol
folding stability dG unfold [3]: 3.26 ± 0.12 kcal/mol

SAGGMKTITLEEAKALAEKAAEKGETVEIEVTLPDGTVVKFKVDAKTKKVELVEVKKLPAPPEDPEKKSAGG [r13_839_TrROS_Hall]
folding stability dG unfold [1]: 1.12 ± 0.046 kcal/mol
folding stability dG unfold [2]: 2.68 ± 0.13 kcal/mol
folding stability dG unfold [3]: 3.07 ± 0.088 kcal/mol

SAGGMKTTLLKEEELPGGVKRKIYLTENSSGGYYYVVTVTTELEPPAESKVSVSSKKISPEELKKLLSAGGS [r16_45_JUSTAS]
folding stability dG unfold [1]: 2.93 ± 0.14 kcal/mol
folding stability dG unfold [2]: 3.32 ± 0.17 kcal/mol
folding stability dG unfold [3]: 3.55 ± 0.069 kcal/mol
